From patent publication US8546535 (ESPERANCE PHARMACEUTICALS, dated 2013)
Where “and” joins values, the source holds several entries; their conditions need not be identical. Identical values can stand only once.

Legend:
[1] = target: luteinizing hormone-releasing hormone (LHRH) receptor (human) (UniProt P30968); test: cell-based or functional assay
[2] = target: T1, luteinizing hormone-releasing hormone (LHRH) receptor (human, UniProt P30968 1-328); test: cell-based or functional assay
T1 sequence (looked up): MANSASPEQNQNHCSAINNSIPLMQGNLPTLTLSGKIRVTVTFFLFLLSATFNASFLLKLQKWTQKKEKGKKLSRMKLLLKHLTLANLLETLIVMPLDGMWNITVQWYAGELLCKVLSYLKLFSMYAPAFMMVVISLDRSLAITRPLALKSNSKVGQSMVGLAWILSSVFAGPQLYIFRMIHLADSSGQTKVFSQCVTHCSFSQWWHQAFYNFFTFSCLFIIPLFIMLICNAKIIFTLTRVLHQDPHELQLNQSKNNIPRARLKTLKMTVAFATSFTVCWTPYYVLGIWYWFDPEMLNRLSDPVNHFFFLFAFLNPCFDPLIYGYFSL

LHRH-Phor21 (peptide)
IC50, cytotoxicity in TM4 cells (no LHRH receptors; receptor-negative control) [1]: 10900 nM

KFAKFAKKFAKFAKKFAKQHWSYGLRPG [Phor18-LHRH (338613)]
IC50, cytotoxicity (MTT) in MCF-7 cells [2]: 3400 nM and 1800 nM
IC50, cytotoxicity (MTT) in MDA-MB-435S cells, 0.5 hour incubation [2]: 1200 nM
IC50, cytotoxicity (MTT) in MDA-MB-435S cells, 1 hour incubation [2]: 600 nM
IC50, cytotoxicity (MTT) in OVCAR-3 cells, increasing incubation time (1st of 7 values) [2]: 6700 nM
IC50, cytotoxicity (MTT) in OVCAR-3 cells, increasing incubation time (2nd of 7 values) [2]: 5600 nM
IC50, cytotoxicity (MTT) in OVCAR-3 cells, increasing incubation time (3rd of 7 values) [2]: 5300 nM
IC50, cytotoxicity (MTT) in OVCAR-3 cells, increasing incubation time (4th of 7 values) [2]: 1600 nM
IC50, cytotoxicity (MTT) in OVCAR-3 cells, increasing incubation time (5th of 7 values) [2]: 1500 nM
IC50, cytotoxicity (MTT) in OVCAR-3 cells, increasing incubation time (6th of 7 values) [2]: 500 nM
IC50, cytotoxicity (MTT) in OVCAR-3 cells, increasing incubation time (7th of 7 values) [2]: 500 nM
IC50, cytotoxicity (MTT) in SKOV-3 cells, 24 hours incubation (cells without functional LHRH receptors; receptor-negative control) [2]: 11500 nM
